Assay results from article doi:10.1101/2023.03.08.531793 (bioRxiv, 2023).

Biological target: T1, HIS-ABI3 fusion protein (Arabidopsis thaliana, UniProt Q01593 1-720)
T1 sequence (looked up): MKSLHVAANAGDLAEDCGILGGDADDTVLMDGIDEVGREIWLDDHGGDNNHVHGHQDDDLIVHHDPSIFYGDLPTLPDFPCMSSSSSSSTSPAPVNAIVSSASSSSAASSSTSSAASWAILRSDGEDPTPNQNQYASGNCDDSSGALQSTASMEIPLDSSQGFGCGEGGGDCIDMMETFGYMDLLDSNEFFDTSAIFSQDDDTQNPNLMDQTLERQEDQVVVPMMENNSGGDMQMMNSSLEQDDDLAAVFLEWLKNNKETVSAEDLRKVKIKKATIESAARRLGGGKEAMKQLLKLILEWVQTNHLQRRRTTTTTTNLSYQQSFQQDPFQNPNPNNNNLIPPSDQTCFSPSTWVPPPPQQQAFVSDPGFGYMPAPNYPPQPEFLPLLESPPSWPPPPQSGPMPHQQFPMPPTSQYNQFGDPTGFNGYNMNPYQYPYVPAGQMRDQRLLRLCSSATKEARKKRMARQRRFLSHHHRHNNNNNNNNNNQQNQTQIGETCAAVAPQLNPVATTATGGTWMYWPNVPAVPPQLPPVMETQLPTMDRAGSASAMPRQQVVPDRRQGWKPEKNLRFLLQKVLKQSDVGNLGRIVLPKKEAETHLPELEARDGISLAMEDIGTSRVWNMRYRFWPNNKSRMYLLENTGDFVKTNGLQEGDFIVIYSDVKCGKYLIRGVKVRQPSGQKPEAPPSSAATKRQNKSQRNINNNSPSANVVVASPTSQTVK
Assay: pull-down

- binding result: binds
B1: GST-ERF1 fusion protein (natural protein)
chain: not shown
